This passage reports IC50 results from US20140294898A1 (published 2014).

Positions of bridges follow the written chain, without caps; N, C: chain ends. Non-standard residues stand in square brackets, D forms with d. Phe(4-CF3) = N[C@@H](Cc1ccc(C(F)(F)F)cc1)C(=O)O; Phe(4-tBu) = CC(C)(C)c1ccc(C[C@H](N)C(=O)O)cc1; Oic = O=C(O)[C@@H]1C[C@@H]2CCCC[C@@H]2N1; Phe(4-Br) = N[C@@H](Cc1ccc(Br)cc1)C(=O)O; Hyp = O=C(O)[C@@H]1C[C@@H](O)CN1; 3Pal = N[C@@H](Cc1cccnc1)C(=O)O; 4Pal = N[C@@H](Cc1ccncc1)C(=O)O; NMeNle = CCCC[C@H](NC)C(=O)O; Pro(4-NH2) = 4-aminoproline; Pro(4-Ph) = 4-phenylproline; Pip = O=C(O)[C@@H]1CCCCN1; NMeA = CN[C@@H](C)C(=O)O; dNMeA = CN[C@H](C)C(=O)O; Sar = CNCC(=O)O

The target in one experiment is T1, hPDL1(19-239)-TVMV-His (human, UniProt Q9NZQ7 19-239).
T1 construct: The text says amino acids 18-239, the construct name says 19-239; Expressed in HEK293T cells; Used at 10 nM final in the HTRF assay; also called PD-L1-His; PD-L1-TVMV-His
T1 sequence (Q9NZQ7 other isoform, or with tags, fused parts or gaps limits assumed): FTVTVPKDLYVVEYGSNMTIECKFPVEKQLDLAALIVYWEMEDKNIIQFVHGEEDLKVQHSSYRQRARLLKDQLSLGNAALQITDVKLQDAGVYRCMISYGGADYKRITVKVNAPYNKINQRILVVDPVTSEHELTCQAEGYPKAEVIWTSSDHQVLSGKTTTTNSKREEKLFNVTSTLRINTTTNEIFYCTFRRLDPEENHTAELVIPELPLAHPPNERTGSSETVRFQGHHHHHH
Description: HTRF competition, PD-1-Ig binding to PD-L1-His. How it is done: All binding studies were performed in an HTRF assay buffer consisting of dPBS supplemented with 0.1% (w/v) bovine serum albumin and 0.05% (v/v) Tween-20. […] PD-L1 fusion proteins from either human, cynomologous macaques, or mouse were used. HTRF detection was achieved using europium crypate-labeled anti-Ig monoclonal antibody (1 nM final) and allophycocyanin (APC) labeled anti-His monoclonal antibody (20 nM final). Antibodies were diluted in HTRF detection buffer and 5 μl was dispensed on top of binding reaction. The reaction was allowed to equilibrate for 30 minutes and signal (665 nm/620 nm ratio) was obtained using an EnVision fluorometer. […]
HTRF Experiments were performed essentially as outlined supra. Variant macrocyclic peptides were created as outlined herein.
On the technique in general: In TR-FRET formats the signal depends on donor and acceptor labels being close together.

Another experiment addresses T2, human PD-L1 (human, UniProt Q9NZQ7 19-239, limits assumed).
T2 construct: also called Hu PD-L1; hPD-L1
Description: cell binding assay, inhibition of Hu PD-L1/PD-1 binding.

T2 sequence (Q9NZQ7 19-239 limits assumed): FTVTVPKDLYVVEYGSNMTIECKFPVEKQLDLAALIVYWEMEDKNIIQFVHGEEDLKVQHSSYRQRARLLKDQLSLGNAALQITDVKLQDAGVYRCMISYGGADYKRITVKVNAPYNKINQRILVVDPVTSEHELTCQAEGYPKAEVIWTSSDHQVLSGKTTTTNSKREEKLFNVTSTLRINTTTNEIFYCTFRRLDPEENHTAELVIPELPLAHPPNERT

As usually defined, the IC50 is the concentration that inhibits the measured activity by half. A low value points to greater potency in that assay. In the case of {CH2CO}-F[NMeA]N[Pro(4-NH2)]HL[Sar]WSW[NMeNle][NMeNle]RCG-NH2 (thioether N-14) [Compound No. 48], the IC50 with hPDL1(19-239)-TVMV-His was 40 nM.

B1: Compound No. 34 (peptide)
peptide: {CH2CO}-[Phe(4-Br)][NMeA]NPHL[Sar]WSW[NMeNle][NMeNle]RCG-NH2
modifications: thioether N-14
SMILES: CCCC[C@H]1C(=O)N(C)[C@@H](CCCC)C(=O)N[C@@H](CCCNC(=N)N)C(=O)N[C@H](C(=O)NCC(N)=O)CSCC(=O)N[C@@H](Cc2ccc(Br)cc2)C(=O)N(C)[C@@H](C)C(=O)N[C@@H](CC(N)=O)C(=O)N2CCC[C@H]2C(=O)N[C@@H](Cc2c[nH]cn2)C(=O)N[C@@H](CC(C)C)C(=O)N(C)CC(=O)N[C@@H](Cc2c[nH]c3ccccc23)C(=O)N[C@@H](CO)C(=O)N[C@@H](Cc2c[nH]c3ccccc23)C(=O)N1C
In the case of B1, the concentration for half-maximal inhibition (IC50) in the experiment with hPDL1(19-239)-TVMV-His was 4 nM.

B2: Compound No. 38 (peptide)
peptide: {CH2CO}-[3Pal][NMeA]NPHL[Sar]WSW[NMeNle][NMeNle]RCG-NH2
modifications: thioether N-14
SMILES: CCCC[C@H]1C(=O)N(C)[C@@H](CCCC)C(=O)N[C@@H](CCCNC(=N)N)C(=O)N[C@H](C(=O)NCC(N)=O)CSCC(=O)N[C@@H](Cc2cccnc2)C(=O)N(C)[C@@H](C)C(=O)N[C@@H](CC(N)=O)C(=O)N2CCC[C@H]2C(=O)N[C@@H](Cc2c[nH]cn2)C(=O)N[C@@H](CC(C)C)C(=O)N(C)CC(=O)N[C@@H](Cc2c[nH]c3ccccc23)C(=O)N[C@@H](CO)C(=O)N[C@@H](Cc2c[nH]c3ccccc23)C(=O)N1C
As for B2, in the experiment with hPDL1(19-239)-TVMV-His, the IC50 came to 46 nM. This IC50 is about 12-fold higher than that of the molecule before.

B3: Compound No. 39 (peptide)
peptide: {CH2CO}-[4Pal][NMeA]NPHL[Sar]WSW[NMeNle][NMeNle]RCG-NH2
modifications: thioether N-14
SMILES: CCCC[C@H]1C(=O)N(C)[C@@H](CCCC)C(=O)N[C@@H](CCCNC(=N)N)C(=O)N[C@H](C(=O)NCC(N)=O)CSCC(=O)N[C@@H](Cc2ccncc2)C(=O)N(C)[C@@H](C)C(=O)N[C@@H](CC(N)=O)C(=O)N2CCC[C@H]2C(=O)N[C@@H](Cc2c[nH]cn2)C(=O)N[C@@H](CC(C)C)C(=O)N(C)CC(=O)N[C@@H](Cc2c[nH]c3ccccc23)C(=O)N[C@@H](CO)C(=O)N[C@@H](Cc2c[nH]c3ccccc23)C(=O)N1C
With B3, the 50% inhibitory concentration (IC50) with hPDL1(19-239)-TVMV-His was 33 nM. This IC50 and that of the molecule before are within 1.5-fold of each other.

B4: Compound No. 44 (peptide)
peptide: {CH2CO}-F[NMeA]N[Pip]HL[Sar]WSW[NMeNle][NMeNle]RCG-NH2
modifications: thioether N-14
SMILES: CCCC[C@H]1C(=O)N(C)[C@@H](CCCC)C(=O)N[C@@H](CCCNC(=N)N)C(=O)N[C@H](C(=O)NCC(N)=O)CSCC(=O)N[C@@H](Cc2ccccc2)C(=O)N(C)[C@@H](C)C(=O)N[C@@H](CC(N)=O)C(=O)N2CCCC[C@H]2C(=O)N[C@@H](Cc2c[nH]cn2)C(=O)N[C@@H](CC(C)C)C(=O)N(C)CC(=O)N[C@@H](Cc2c[nH]c3ccccc23)C(=O)N[C@@H](CO)C(=O)N[C@@H](Cc2c[nH]c3ccccc23)C(=O)N1C
In turn, B4 returned a concentration for half-maximal inhibition (IC50) with hPDL1(19-239)-TVMV-His of 34 nM.

B5: Compound No. 8 (peptide)
peptide: {CH2CO}-F[NMeA]APHL[Sar]WSW[NMeNle][NMeNle]RCG-NH2
modifications: thioether N-14
SMILES: CCCC[C@H]1C(=O)N(C)[C@@H](CCCC)C(=O)N[C@@H](CCCNC(=N)N)C(=O)N[C@H](C(=O)NCC(N)=O)CSCC(=O)N[C@@H](Cc2ccccc2)C(=O)N(C)[C@@H](C)C(=O)N[C@@H](C)C(=O)N2CCC[C@H]2C(=O)N[C@@H](Cc2c[nH]cn2)C(=O)N[C@@H](CC(C)C)C(=O)N(C)CC(=O)N[C@@H](Cc2c[nH]c3ccccc23)C(=O)N[C@@H](CO)C(=O)N[C@@H](Cc2c[nH]c3ccccc23)C(=O)N1C
notes: macrocyclic peptide, Formula I series; also called Compound 8
B5 registered an IC50 with human PD-L1 of 223 nM.

B6: Compound No. 14 (peptide)
peptide: {CH2CO}-F[NMeA]NPHL[dNMeA]WSW[NMeNle][NMeNle]RCG-NH2
modifications: thioether N-14
SMILES: CCCC[C@H]1C(=O)N(C)[C@@H](CCCC)C(=O)N[C@@H](CCCNC(=N)N)C(=O)N[C@H](C(=O)NCC(N)=O)CSCC(=O)N[C@@H](Cc2ccccc2)C(=O)N(C)[C@@H](C)C(=O)N[C@@H](CC(N)=O)C(=O)N2CCC[C@H]2C(=O)N[C@@H](Cc2c[nH]cn2)C(=O)N[C@@H](CC(C)C)C(=O)N(C)[C@H](C)C(=O)N[C@@H](Cc2c[nH]c3ccccc23)C(=O)N[C@@H](CO)C(=O)N[C@@H](Cc2c[nH]c3ccccc23)C(=O)N1C
notes: macrocyclic peptide, Formula I series; also called Compound 14
In the experiment with human PD-L1, B6 showed an IC50 of 242 nM.

B7: Compound No. 13 (peptide)
peptide: {CH2CO}-F[NMeA]NPHL[NMeA]WSW[NMeNle][NMeNle]RCG-NH2
modifications: thioether N-14
SMILES: CCCC[C@H]1C(=O)N(C)[C@@H](CCCC)C(=O)N[C@@H](CCCNC(=N)N)C(=O)N[C@H](C(=O)NCC(N)=O)CSCC(=O)N[C@@H](Cc2ccccc2)C(=O)N(C)[C@@H](C)C(=O)N[C@@H](CC(N)=O)C(=O)N2CCC[C@H]2C(=O)N[C@@H](Cc2c[nH]cn2)C(=O)N[C@@H](CC(C)C)C(=O)N(C)[C@@H](C)C(=O)N[C@@H](Cc2c[nH]c3ccccc23)C(=O)N[C@@H](CO)C(=O)N[C@@H](Cc2c[nH]c3ccccc23)C(=O)N1C
notes: macrocyclic peptide, Formula I series; also called Compound 13
Regarding B7, in the experiment with human PD-L1, the IC50 is 35 nM.

B8: Compound No. 10 (peptide)
peptide: {CH2CO}-F[NMeA]NPAL[Sar]WSW[NMeNle][NMeNle]RCG-NH2
modifications: thioether N-14
SMILES: CCCC[C@H]1C(=O)N(C)[C@@H](CCCC)C(=O)N[C@@H](CCCNC(=N)N)C(=O)N[C@H](C(=O)NCC(N)=O)CSCC(=O)N[C@@H](Cc2ccccc2)C(=O)N(C)[C@@H](C)C(=O)N[C@@H](CC(N)=O)C(=O)N2CCC[C@H]2C(=O)N[C@@H](C)C(=O)N[C@@H](CC(C)C)C(=O)N(C)CC(=O)N[C@@H](Cc2c[nH]c3ccccc23)C(=O)N[C@@H](CO)C(=O)N[C@@H](Cc2c[nH]c3ccccc23)C(=O)N1C
notes: macrocyclic peptide, Formula I series; also called Compound 10
B8 had an IC50 with human PD-L1 of 82 nM.

B9: Compound No. 35 (peptide)
peptide: {CH2CO}-[Phe(4-CF3)][NMeA]NPHL[Sar]WSW[NMeNle][NMeNle]RCG-NH2
modifications: thioether N-14
SMILES: CCCC[C@H]1C(=O)N(C)[C@@H](CCCC)C(=O)N[C@@H](CCCNC(=N)N)C(=O)N[C@H](C(=O)NCC(N)=O)CSCC(=O)N[C@@H](Cc2ccc(C(F)(F)F)cc2)C(=O)N(C)[C@@H](C)C(=O)N[C@@H](CC(N)=O)C(=O)N2CCC[C@H]2C(=O)N[C@@H](Cc2c[nH]cn2)C(=O)N[C@@H](CC(C)C)C(=O)N(C)CC(=O)N[C@@H](Cc2c[nH]c3ccccc23)C(=O)N[C@@H](CO)C(=O)N[C@@H](Cc2c[nH]c3ccccc23)C(=O)N1C
Consider B9, for which the 50% inhibitory concentration (IC50) with hPDL1(19-239)-TVMV-His was 56 nM.

B10: Compound No. 47 (peptide)
peptide: {CH2CO}-F[NMeA]N[Hyp]HL[Sar]WSW[NMeNle][NMeNle]RCG-NH2
modifications: thioether N-14
SMILES: CCCC[C@H]1C(=O)N(C)[C@@H](CCCC)C(=O)N[C@@H](CCCNC(=N)N)C(=O)N[C@H](C(=O)NCC(N)=O)CSCC(=O)N[C@@H](Cc2ccccc2)C(=O)N(C)[C@@H](C)C(=O)N[C@@H](CC(N)=O)C(=O)N2C[C@H](O)C[C@H]2C(=O)N[C@@H](Cc2c[nH]cn2)C(=O)N[C@@H](CC(C)C)C(=O)N(C)CC(=O)N[C@@H](Cc2c[nH]c3ccccc23)C(=O)N[C@@H](CO)C(=O)N[C@@H](Cc2c[nH]c3ccccc23)C(=O)N1C
B10 registered an IC50 in the experiment with hPDL1(19-239)-TVMV-His of 27 nM. Compared with the last molecule, the IC50 is about 2.1-fold lower.
For {CH2CO}-F[NMeA]N[Pro(4-Ph)]HL[Sar]WSW[NMeNle][NMeNle]RCG-NH2 (thioether N-14) [Compound No. 46], the half-inhibitory concentration (IC50) with hPDL1(19-239)-TVMV-His was found to be 873 nM. Against the preceding molecule, the IC50 is about 32-fold higher.

B11: Compound No. 45 (peptide)
peptide: {CH2CO}-F[NMeA]N[Oic]HL[Sar]WSW[NMeNle][NMeNle]RCG-NH2
modifications: thioether N-14
SMILES: CCCC[C@H]1C(=O)N(C)[C@@H](CCCC)C(=O)N[C@@H](CCCNC(=N)N)C(=O)N[C@H](C(=O)NCC(N)=O)CSCC(=O)N[C@@H](Cc2ccccc2)C(=O)N(C)[C@@H](C)C(=O)N[C@@H](CC(N)=O)C(=O)N2[C@@H](C[C@@H]3CCCC[C@@H]32)C(=O)N[C@@H](Cc2c[nH]cn2)C(=O)N[C@@H](CC(C)C)C(=O)N(C)CC(=O)N[C@@H](Cc2c[nH]c3ccccc23)C(=O)N[C@@H](CO)C(=O)N[C@@H](Cc2c[nH]c3ccccc23)C(=O)N1C
In turn, B11 gave a half-maximal inhibitory concentration (IC50) with hPDL1(19-239)-TVMV-His of 105 nM.

B12: Compound No. 37 (peptide)
peptide: {CH2CO}-[Phe(4-tBu)][NMeA]NPHL[Sar]WSW[NMeNle][NMeNle]RCG-NH2
modifications: thioether N-14
SMILES: CCCC[C@H]1C(=O)N(C)[C@@H](CCCC)C(=O)N[C@@H](CCCNC(=N)N)C(=O)N[C@H](C(=O)NCC(N)=O)CSCC(=O)N[C@@H](Cc2ccc(C(C)(C)C)cc2)C(=O)N(C)[C@@H](C)C(=O)N[C@@H](CC(N)=O)C(=O)N2CCC[C@H]2C(=O)N[C@@H](Cc2c[nH]cn2)C(=O)N[C@@H](CC(C)C)C(=O)N(C)CC(=O)N[C@@H](Cc2c[nH]c3ccccc23)C(=O)N[C@@H](CO)C(=O)N[C@@H](Cc2c[nH]c3ccccc23)C(=O)N1C
In the experiment with hPDL1(19-239)-TVMV-His, B12 gave an IC50 of 1270 nM.
